Tests used:
ctnb1_human CTNNB1 = ctnb1_human CTNNB1 (UniProt P35222)
ehmt2_human EHMT2 = ehmt2_human EHMT2 (UniProt Q96KQ7)
setb1_human SETDB1 = setb1_human SETDB1 (UniProt Q15047)

effect of a mutation on the interaction (ctnb1_human CTNNB1): increasing interaction | effect of a mutation on the interaction (ehmt2_human EHMT2): increasing interaction | effect of a mutation on the interaction (SETDB1, Q15047-2): increasing interaction | effect of a mutation on the interaction (setb1_human SETDB1): increasing interaction
Substance: Parafibromin (Homo sapiens) (from UniProt Q6P1J9) Y290F;Y293F;Y315F
